In patent US20250179155A1 (VANDERBILT UNIVERSITY, published 2025):
Numbering of substitutions follows the chain as printed.

B1: A1C11 (VHH)
VHH: QVQLQESGGGLVQAGDSLRLSCAASGRTFSRYAMGWFRQAPGKEREFVAAISWSGGTTYYADSVKGRFTISRDNAKNTVYLQMNSLKPEDTAVYYCAAGLFRGDLTRFKLDEYDYRGQGTQVTVSS
B2: A1D8 (VHH)
VHH: B1 VHH with D16G, A23V, R27G, M34L, W53Y, G56A, Y80F, L100F, R107K
B3: A2F12 (VHH)
VHH: B1 VHH with D16G, G56D, Y60D, I70V, R107K, K109E
B4: A2C2 (VHH)
VHH: B1 VHH with A14T, D16G, A23T, P41S, W53Y, A61S, N77S, Y80S, K109T
B5: A1G6 (VHH)
VHH: QVQLQESGGGLVQPGGSLRLSCAASGRAFSSYAMGWFRQTPGKEREFVAVISWSGGSTYYADSVKGRFTISRDNTKNMVYLQMMSLKPEDTAVYYCAADFSQPLLATVPDDYDYWGQGTQVTVSS
B6: A1D1 (VHH)
VHH: QVQLQESGGGLVQAGGSLRLSCAASGRTFSTHTMAWFRQAPGKEREFVTGIRWSDGMTIYADSVKGRFTISRDKATNTMYLEMNTLKPDDTAVYYCGAGPTMYHPTYWGQGTQVTVSS
B7: A1H5 (VHH)
VHH: QVQLQESGGGLVQPGGSLRLSCAASGSIFSINAMGWYRQAPGKQRELVASITSGGSTNYADSVKGRFTISRDGAKNTVYLQMNSLKPEDTAVYYCHVPWTDDFGWAVKDYWGQGTQVTVSS
B8: A1H1 (VHH)
VHH: QVQLQESGGGLVQAGGSLRLSCAASGGTFSKTSVGWFRQAPGLEREFVALITWSGNTYFVDSVRERFAISRDNAENTVYLQMNSLEPEDTAVYYCAARERTAARIQEFDYWGQGTQVTVSS
B9: A2B10 (VHH)
VHH: QVQLQESGGGTVQPGGSLRLSCAASGRDFSSGAMGWFRQTPGNEREFVGVGWSGGLIDYSDSVKGRFTITRDKLKNEVYLRMDRLKPEDTAVYFCAVNSANSCAGYDCHDKPQTYNYWGQGTQVTVSS
B10: A2F10 (VHH)
VHH: QVQLQESGGGLVQPGGSLRLSCAASGRSFSSGAMGWFRQAPGKEREFVGVGWSGGLIDYAASVRGRFTITRDKAKNTVYLRMDSLRPEDTAVYYCAINSANSCAGYDCHDKPQVYDYWGQGTQVTVSS
B11: A1C1 (VHH)
VHH: QVQLQESGGGLVQAGGSLRLSCAASGGTFSSYSVGWFRQAPGLEREFVGMITWRGITYFEDFVKDRFNISRDNAKNTVYLQMNSLKPEDTAVYSCAARDRRAARIQEFDYWGQGTQVTVSS
B12: A2A8 (VHH)
VHH: QVQLQESGGGLVQAGDSLRLSCTASGGTFSSYSIGWFRQAPGLEREFVALITWRNNTYLGDSVRERFAISRDNAKNTVYLQMNSLKPEDTAVYSCAARERRVARIQEFDYWGQGTQVTVSS
B13: B0D11 (VHH)
VHH: QVQLQESGGGLAQPGGSLRLSCAASGFTFSHAVMSWFRQAPGKERELVAGWRSAGGITNYADSVKGRFTISGDNAKDVVYLQMNSLKPEDTAVYYCKAFVVGSAYWGQGTQVTVSS
B14: B1E7 (VHH)
VHH: QVQLQESGGGLVQPGGSLRLSCAASGSLRSGYVMSWHRQAPGKQRELVASITTGDITQYGASVKGRFTISRDETKNMGWLQMNSLLPEDTAVYYCKITELPTVSVYWGQGTQVTVSS
B15: B2C5 (VHH)
VHH: QVQLQESGGGLVQPGGSLRLSCAASGLTSGTYVMSWFRQAPGKEREFVAAIRDAGGIRNYADSVKGRFTISRDAAKNMIFLQMNSLKPEDTAVYYCKFLRLPESLAYWGQGTQVTVSS
B16: B1C10 (VHH)
VHH: QVQLQESGGGLVQPGGSLRLSCLASGLSLSTDVMSWFRQAPGKERELVAGIRSAGWITNYADSVKGRFTISVDSAKNTVYLQMNSLKPEDTAVYYCKVLRLPDGLAFWGQGTQVTVSS
B17: B0B7 (VHH)
VHH: QVQLQESGGGSVQPGGSLRLSCAASGSIYGMMMMAWYRQRTGEQRELVANFTRDGSTNYVDSVKGRFTISRDNDKKMVYLQMKDLKPEDTAVYYCNIQRYWGKGTAVTVSS
B18: B0A9 (VHH)
VHH: QVQLQESGGGLVQPGGSLRLTCTSSTSINIYPYMGWYRQAPGKQRERVATVNRDGNTNYLDSVKGRFTITRDDAKKTICLQMNNLEPEDTAVYYCNNFGSSSWGQGTQVTVSS
B19: B0C10 (VHH)
VHH: QVQLQESGGGLVQPGGSLRLSCTASGFTRKHYTIGWFRQAPGKEREGVSCITTPDNSTYYKDSVKGRFTISRDNAKNTVYLQMNNVKPEDTAVYYCGASALGGSSCAQSSSVLHRLFQWGQGTQVTVSS
B20: B2C11 (VHH)
VHH: QVQLQESGGGLVHVGESLTLSCVAPGSIFGVNTMAWYRQAPGKQRELVAAISPGGYTNYAEFVKGRFGISRDKAKNTVYLQMNDLKPEDTAVYYCNYRSGTSRPNTNWGQGTQVTVSS
B21: B0B11 (VHH)
VHH: QVQLQESGGGLVQPGGSLRLSCATSGFYFPNYAMSWHRQAPGQERELVARITSAGGSTDYADSVKGRFTISRDNSKNTVYLQMNGLISEDTAVYYCNADPSYGTRYWGQGTQVTVSS
B22: B0E2 (VHH)
VHH: QVQLQESGGGLVLPGGSLRLSCAASGTVFKIYVMGWYRQAPGKQRELVATISNGGTPNYADSVKGRFTISGDRAKNTVFLQMSSLNVEDTAVYYCNRRQLEGRQSEDYWGQGTQVTVSS

Molecular target: T1, TcdA-GTD (TcdA1-542) (Clostridioides difficile strain VPI10463, UniProt P16154 1-542)
T1 construct: range 1-542; also called TcdA glucosyltransferase domain
Assay: ELISA-like screen of clone lysates on isolated domains

T1 sequence (P16154 1-542 limits assumed): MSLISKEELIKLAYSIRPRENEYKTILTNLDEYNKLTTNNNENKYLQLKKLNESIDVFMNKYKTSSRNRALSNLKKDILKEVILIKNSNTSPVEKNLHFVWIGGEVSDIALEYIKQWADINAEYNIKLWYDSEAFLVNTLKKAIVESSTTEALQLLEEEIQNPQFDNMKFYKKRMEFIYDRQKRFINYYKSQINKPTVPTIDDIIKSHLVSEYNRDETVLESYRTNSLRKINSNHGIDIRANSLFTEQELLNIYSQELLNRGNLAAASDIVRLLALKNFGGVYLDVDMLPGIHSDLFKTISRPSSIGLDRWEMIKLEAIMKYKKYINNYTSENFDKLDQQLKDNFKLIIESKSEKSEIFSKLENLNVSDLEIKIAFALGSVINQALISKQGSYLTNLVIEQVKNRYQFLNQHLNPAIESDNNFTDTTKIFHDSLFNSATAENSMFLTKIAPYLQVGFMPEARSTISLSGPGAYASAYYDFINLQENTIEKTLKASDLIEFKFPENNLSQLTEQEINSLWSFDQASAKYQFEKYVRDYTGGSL

B1: no binding.
B2: no binding.
B3: no binding.
B4: no binding.
B5: no binding.
B6: no binding.
B7: no binding.

Molecular target: full-length TcdA (TcdA1-2710) (Clostridioides difficile strain VPI10463, UniProt P16154 1-2710)
Assay: cell-based or functional assay

Compared with B1, B2 is 5-fold lower in “EC50 (nM), TcdA neutralization, T84 cells” value (“EC50 (nM) … T84 cells” for short): 10.4 nM for the first, 2.1 nM for the second.

Going from B3 to B4, the “EC50 (nM) … T84 cells” value rises from 1.1 nM to 2.4 nM (2.2-fold).

B9 and B10 are within 1.5-fold of each other in “EC50 (nM) … T84 cells” value: 678 nM for the first, 455 nM for the second.

B1 and B2 cannot be ordered by “EC50 (nM), TcdA neutralization, Vero cells” value: less than 1 nM for the first, less than 1 nM for the second.

B3 and B4 cannot be ordered by “EC50 (nM), TcdA neutralization, Vero cells” value: less than 1 nM for the first, less than 1 nM for the second.

First: B5
Second: B7
The “EC50 (nM), TcdA neutralization, Vero cells” value of the first is 2.5-fold lower: 6.4 nM for the first, 15.7 nM for the second.

B8 and B11 cannot be ordered by “EC50, TcdA neutralization, T84 cells” value: greater than 10000 nM for the first, greater than 10000 nM for the second.

B12 was tested, and the “EC50, TcdA neutralization, T84 cells” value was greater than 10000 nM.

Molecular target: full-length TcdB (TcdB1-2366), VPI10463 (Clostridioides difficile strain VPI10463, UniProt P18177 1-2366)
Assay: cell-based or functional assay

Sequence of full-length TcdB (TcdB1-2366), VPI10463 (P18177 whole entry): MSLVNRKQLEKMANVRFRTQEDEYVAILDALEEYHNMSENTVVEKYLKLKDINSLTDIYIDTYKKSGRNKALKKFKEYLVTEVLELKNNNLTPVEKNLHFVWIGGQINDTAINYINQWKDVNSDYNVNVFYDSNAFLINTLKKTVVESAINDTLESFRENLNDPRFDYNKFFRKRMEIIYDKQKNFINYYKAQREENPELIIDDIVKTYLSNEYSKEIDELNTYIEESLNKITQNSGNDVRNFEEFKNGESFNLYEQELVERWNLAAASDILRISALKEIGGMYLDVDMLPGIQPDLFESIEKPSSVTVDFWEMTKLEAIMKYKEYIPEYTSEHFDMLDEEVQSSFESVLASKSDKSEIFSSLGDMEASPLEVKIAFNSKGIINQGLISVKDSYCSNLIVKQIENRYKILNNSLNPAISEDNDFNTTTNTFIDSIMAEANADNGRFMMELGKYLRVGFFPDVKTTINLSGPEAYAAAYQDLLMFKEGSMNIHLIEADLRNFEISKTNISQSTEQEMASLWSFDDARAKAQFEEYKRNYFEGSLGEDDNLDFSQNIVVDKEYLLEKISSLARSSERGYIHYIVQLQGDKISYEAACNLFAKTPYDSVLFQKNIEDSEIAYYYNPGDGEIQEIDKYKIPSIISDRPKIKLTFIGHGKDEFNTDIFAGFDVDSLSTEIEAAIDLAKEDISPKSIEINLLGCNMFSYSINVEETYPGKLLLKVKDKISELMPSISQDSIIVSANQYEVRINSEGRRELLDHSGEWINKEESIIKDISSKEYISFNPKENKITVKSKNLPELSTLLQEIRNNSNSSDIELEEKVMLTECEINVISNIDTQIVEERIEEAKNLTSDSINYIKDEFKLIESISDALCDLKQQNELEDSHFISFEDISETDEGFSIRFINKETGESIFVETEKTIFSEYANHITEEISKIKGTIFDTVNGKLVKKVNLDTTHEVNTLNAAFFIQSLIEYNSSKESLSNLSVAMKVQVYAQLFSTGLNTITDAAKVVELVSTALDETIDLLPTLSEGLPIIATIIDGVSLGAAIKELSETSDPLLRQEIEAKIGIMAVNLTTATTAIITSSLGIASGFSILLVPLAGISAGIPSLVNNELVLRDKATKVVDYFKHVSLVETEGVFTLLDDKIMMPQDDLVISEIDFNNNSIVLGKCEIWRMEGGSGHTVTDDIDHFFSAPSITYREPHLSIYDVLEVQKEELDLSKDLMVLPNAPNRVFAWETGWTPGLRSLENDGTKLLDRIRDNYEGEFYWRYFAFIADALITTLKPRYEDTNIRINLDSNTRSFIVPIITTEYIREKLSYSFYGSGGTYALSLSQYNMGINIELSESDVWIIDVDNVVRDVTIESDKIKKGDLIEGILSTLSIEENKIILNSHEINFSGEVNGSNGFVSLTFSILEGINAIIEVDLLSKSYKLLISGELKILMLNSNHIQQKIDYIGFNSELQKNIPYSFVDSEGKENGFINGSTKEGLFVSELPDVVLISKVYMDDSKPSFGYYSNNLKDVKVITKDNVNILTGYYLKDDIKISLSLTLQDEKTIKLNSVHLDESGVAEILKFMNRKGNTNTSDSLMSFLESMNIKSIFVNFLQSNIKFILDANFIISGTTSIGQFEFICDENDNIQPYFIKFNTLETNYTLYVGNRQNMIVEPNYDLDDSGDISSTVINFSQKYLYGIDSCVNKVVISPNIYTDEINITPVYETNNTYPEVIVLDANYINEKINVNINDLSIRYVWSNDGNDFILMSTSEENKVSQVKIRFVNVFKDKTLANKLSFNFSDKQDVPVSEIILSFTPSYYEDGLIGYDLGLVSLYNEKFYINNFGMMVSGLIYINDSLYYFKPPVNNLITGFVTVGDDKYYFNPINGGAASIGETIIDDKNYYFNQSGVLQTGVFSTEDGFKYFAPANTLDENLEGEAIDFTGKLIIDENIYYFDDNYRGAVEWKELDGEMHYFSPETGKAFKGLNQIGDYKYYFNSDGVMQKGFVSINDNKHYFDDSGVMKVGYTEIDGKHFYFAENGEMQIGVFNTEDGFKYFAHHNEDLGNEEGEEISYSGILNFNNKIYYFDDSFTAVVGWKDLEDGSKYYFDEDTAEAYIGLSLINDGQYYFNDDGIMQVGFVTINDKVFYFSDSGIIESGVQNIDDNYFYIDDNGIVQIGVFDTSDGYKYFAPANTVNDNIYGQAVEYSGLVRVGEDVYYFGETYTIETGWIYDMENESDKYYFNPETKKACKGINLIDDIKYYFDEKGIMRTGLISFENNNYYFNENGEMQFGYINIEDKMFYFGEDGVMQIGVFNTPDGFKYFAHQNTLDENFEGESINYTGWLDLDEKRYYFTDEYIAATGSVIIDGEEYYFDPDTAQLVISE

Going from B13 to B18, the “EC50 (nM), TcdB neutralization, Caco-2 cells” value (from here on “EC50 (nM) … Caco-2 cells”) falls from 111 nM to 1.3 nM (85-fold).

Going from B19 to B21, the “EC50 (nM) … Caco-2 cells” value rises from less than 1 nM to 161 nM.

For B22, the “EC50 (nM) … Caco-2 cells” value was less than 1 nM.

Compared with B13, B14 is 18-fold lower in “EC50 (nM), TcdB neutralization, Vero cells” value: 176 nM for the first, 10 nM for the second.

First: B15
Second: B16
The “EC50 (nM), TcdB neutralization, Vero cells” value of the first is lower: less than 1 nM for the first, 2.2 nM for the second.

Going from B17 to B18, the “EC50 (nM), TcdB neutralization, Vero cells” value rises from less than 1 nM to 12.9 nM.

First: B19
Second: B20
The “EC50 (nM), TcdB neutralization, Vero cells” value of the first is higher: 1.3 nM for the first, less than 1 nM for the second.

Going from B21 to B22, the “EC50 (nM), TcdB neutralization, Vero cells” value falls from 350 nM to 28 nM (12-fold).
